From patent US20120172293A1 (Takeda / Millennium, published 2012)
Non-standard residues stand in square brackets, D forms with d. *: point of attachment. βHOAla = beta-homoalanine (β-HOAla), D- or L-form; 4Pal = N[C@@H](Cc1ccncc1)C(=O)O; Cha = N[C@@H](CC1CCCCC1)C(=O)O; Cit = NC(=O)NCCC[C@H](N)C(=O)O; Isonicotinoyl = O=C(c1ccncc1)*; Aipe = 3-aminobutanoic acid; dIva = CC[C@@](C)(N)C(=O)O; Iva = CC[C@](C)(N)C(=O)O; Nle = CCCC[C@H](N)C(=O)O; Aib = CC(C)(N)C(=O)O; βAla = NCCC(=O)O

Tests used:
[1] = target: human Y2 receptor (human) (UniProt P49146); assay: RBA: displacement of [125I]-PYY from hY2R/CHO membranes
[2] = target: human Y2 receptor (human) (UniProt P49146); assay: cell-based or functional assay

human Y2 receptor (human), sequence (P49146 whole entry): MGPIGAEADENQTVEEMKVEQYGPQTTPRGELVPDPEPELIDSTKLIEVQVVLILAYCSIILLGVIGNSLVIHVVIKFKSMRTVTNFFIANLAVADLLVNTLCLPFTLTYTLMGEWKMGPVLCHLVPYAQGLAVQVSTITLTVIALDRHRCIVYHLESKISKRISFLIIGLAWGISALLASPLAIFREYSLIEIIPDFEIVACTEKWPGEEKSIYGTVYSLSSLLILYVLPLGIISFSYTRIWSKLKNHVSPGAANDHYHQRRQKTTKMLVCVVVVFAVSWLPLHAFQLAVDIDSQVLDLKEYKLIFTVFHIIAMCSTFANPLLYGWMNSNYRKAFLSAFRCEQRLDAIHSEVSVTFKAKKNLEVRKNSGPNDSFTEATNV

| Binder | IC50 Ratio (IC50 compound/IC50 PYY(3-36)) [1] | GBA EC50 Ratio ([35S]GTPγS binding) (EC50 compound/EC50 PYY(3-36)) [2] |
| --- | --- | --- |
| Ac-S[Iva]R[4Pal][Cha][Aib]NK[Aib]TRQR[Cha]-NH2 (SMILES CC[C@](C)(NC(=O)[C@H](CO)NC(C)=O)C(=O)N[C@@H](CCCNC(=N)N)C(=O)N[C@@H](Cc1ccncc1)C(=O)N[C@@H](CC1CCCCC1)C(=O)NC(C)(C)C(=O)N[C@@H](CC(N)=O)C(=O)N[C@@H](CCCCN)C(=O)NC(C)(C)C(=O)N[C@H](C(=O)N[C@@H](CCCNC(=N)N)C(=O)N[C@@H](CCC(N)=O)C(=O)N[C@@H](CCCNC(=N)N)C(=O)N[C@@H](CC1CCCCC1)C(N)=O)[C@@H](C)O) [Ac-[Iva24, Pya(4)26, Cha27,36, Aib28,31, Lys30]-PYY(23-36)] | 0.58 | 0.91 |
| Ac-S[dP][Aib]H[Cha][Aib]NK[Aib]TRQR[Cha]-NH2 (SMILES CC(=O)N[C@@H](CO)C(=O)N1CCC[C@@H]1C(=O)NC(C)(C)C(=O)N[C@@H](Cc1c[nH]cn1)C(=O)N[C@@H](CC1CCCCC1)C(=O)NC(C)(C)C(=O)N[C@@H](CC(N)=O)C(=O)N[C@@H](CCCCN)C(=O)NC(C)(C)C(=O)N[C@H](C(=O)N[C@@H](CCCNC(=N)N)C(=O)N[C@@H](CCC(N)=O)C(=O)N[C@@H](CCCNC(=N)N)C(=O)N[C@@H](CC1CCCCC1)C(N)=O)[C@@H](C)O) [Ac-[D-Pro24, Aib25,28,31, Cha27,36, Lys30]-PYY(23-36)] | 24 | 11 |
| Ac-S[dP][Cit]H[Cha][Aib]NK[Aib]TRQR[Cha]-NH2 (SMILES CC(=O)N[C@@H](CO)C(=O)N1CCC[C@@H]1C(=O)N[C@@H](CCCNC(N)=O)C(=O)N[C@@H](Cc1c[nH]cn1)C(=O)N[C@@H](CC1CCCCC1)C(=O)NC(C)(C)C(=O)N[C@@H](CC(N)=O)C(=O)N[C@@H](CCCCN)C(=O)NC(C)(C)C(=O)N[C@H](C(=O)N[C@@H](CCCNC(=N)N)C(=O)N[C@@H](CCC(N)=O)C(=O)N[C@@H](CCCNC(=N)N)C(=O)N[C@@H](CC1CCCCC1)C(N)=O)[C@@H](C)O) [Ac-[D-Pro24, Cit25, Cha27,36, Aib28,31, Lys30]-PYY(23-36)] | 6.2 | 4.6 |
| Ac-S[dP][Iva][4Pal][Cha][Aib]NK[Aib]TRQR[Cha]-NH2 (SMILES CC[C@](C)(NC(=O)[C@H]1CCCN1C(=O)[C@H](CO)NC(C)=O)C(=O)N[C@@H](Cc1ccncc1)C(=O)N[C@@H](CC1CCCCC1)C(=O)NC(C)(C)C(=O)N[C@@H](CC(N)=O)C(=O)N[C@@H](CCCCN)C(=O)NC(C)(C)C(=O)N[C@H](C(=O)N[C@@H](CCCNC(=N)N)C(=O)N[C@@H](CCC(N)=O)C(=O)N[C@@H](CCCNC(=N)N)C(=O)N[C@@H](CC1CCCCC1)C(N)=O)[C@@H](C)O) [Ac-[D-Pro24, Iva25, Pya(4)26, Cha27,36, Aib28,31, Lys30]-PYY(23-36)] | 2.9 | 2.9 |
| Ac-S[Aib]R[4Pal][Cha][Aib]NK[Aib]TRQR[Cha]-NH2 (SMILES CC(=O)N[C@@H](CO)C(=O)NC(C)(C)C(=O)N[C@@H](CCCNC(=N)N)C(=O)N[C@@H](Cc1ccncc1)C(=O)N[C@@H](CC1CCCCC1)C(=O)NC(C)(C)C(=O)N[C@@H](CC(N)=O)C(=O)N[C@@H](CCCCN)C(=O)NC(C)(C)C(=O)N[C@H](C(=O)N[C@@H](CCCNC(=N)N)C(=O)N[C@@H](CCC(N)=O)C(=O)N[C@@H](CCCNC(=N)N)C(=O)N[C@@H](CC1CCCCC1)C(N)=O)[C@@H](C)O) [Ac-[Aib24,28,31, Pya(4)26, Cha27,36, Lys30]-PYY(23-36)] | 0.81 | 1.1 |
| Ac-S[βHOAla]R[4Pal][Cha][Aib]NK[Aib]TRQR[Cha]-NH2 (also: later peak isomer, β-HOAla configuration D or L not assigned) [Ac-[β-HOAla24, Pya(4)26, Cha27,36, Aib28,31, Lys30]-PYY(23-36) later peak] | 0.85 | 1.9 |
| Ac-S[Aipe]R[4Pal][Cha][Aib]NK[Aib]TRQR[Cha]-NH2 [Ac-[Aipe24, Pya(4)26, Cha27,36, Aib28,31, Lys30]-PYY(23-36)] | 1.3 | 2 |
| Ac-S[βAla]R[4Pal][Cha][Aib]NK[Aib]TRQR[Cha]-NH2 (SMILES CC(=O)N[C@@H](CO)C(=O)NCCC(=O)N[C@@H](CCCNC(=N)N)C(=O)N[C@@H](Cc1ccncc1)C(=O)N[C@@H](CC1CCCCC1)C(=O)NC(C)(C)C(=O)N[C@@H](CC(N)=O)C(=O)N[C@@H](CCCCN)C(=O)NC(C)(C)C(=O)N[C@H](C(=O)N[C@@H](CCCNC(=N)N)C(=O)N[C@@H](CCC(N)=O)C(=O)N[C@@H](CCCNC(=N)N)C(=O)N[C@@H](CC1CCCCC1)C(N)=O)[C@@H](C)O) [Ac-[βAla24, Pya(4)26, Cha27,36, Aib28,31, Lys30]-PYY(23-36)] | 1.9 | 1.1 |
| Ac-E[βAla]R[4Pal][Cha][Aib]NK[Aib]TRQR[Cha]-NH2 (SMILES CC(=O)N[C@@H](CCC(=O)O)C(=O)NCCC(=O)N[C@@H](CCCNC(=N)N)C(=O)N[C@@H](Cc1ccncc1)C(=O)N[C@@H](CC1CCCCC1)C(=O)NC(C)(C)C(=O)N[C@@H](CC(N)=O)C(=O)N[C@@H](CCCCN)C(=O)NC(C)(C)C(=O)N[C@H](C(=O)N[C@@H](CCCNC(=N)N)C(=O)N[C@@H](CCC(N)=O)C(=O)N[C@@H](CCCNC(=N)N)C(=O)N[C@@H](CC1CCCCC1)C(N)=O)[C@@H](C)O) [Ac-[Glu23, βAla24, Pya(4)26, Cha27,36, Aib28,31, Lys30]-PYY(23-36)] | 7.4 | 3.9 |

Results, then the binder that gave them:

| IC50 Ratio (IC50 compound/IC50 PYY(3-36)) [1] | GBA EC50 Ratio ([35S]GTPγS binding) (EC50 compound/EC50 PYY(3-36)) [2] | Binder |
| --- | --- | --- |
| 2.4 | 2.8 | Ac-S[βHOAla]R[4Pal][Cha][Aib]NK[Aib]TRQR[Cha]-NH2 (also: former peak isomer, β-HOAla configuration D or L not assigned) [Ac-[β-HOAla24, Pya(4)26, Cha27,36, Aib28,31, Lys30]-PYY(23-36) former peak] |
| 0.39 | 1.3 | Ac-S[dIva]R[4Pal][Cha][Aib]NK[Aib]TRQR[Cha]-NH2 (SMILES CC[C@@](C)(NC(=O)[C@H](CO)NC(C)=O)C(=O)N[C@@H](CCCNC(=N)N)C(=O)N[C@@H](Cc1ccncc1)C(=O)N[C@@H](CC1CCCCC1)C(=O)NC(C)(C)C(=O)N[C@@H](CC(N)=O)C(=O)N[C@@H](CCCCN)C(=O)NC(C)(C)C(=O)N[C@H](C(=O)N[C@@H](CCCNC(=N)N)C(=O)N[C@@H](CCC(N)=O)C(=O)N[C@@H](CCCNC(=N)N)C(=O)N[C@@H](CC1CCCCC1)C(N)=O)[C@@H](C)O) [Ac-[D-Iva24, Pya(4)26, Cha27,36, Aib28,31, Lys30]-PYY(23-36)] |
| 8.8 | 5.2 | Ac-S[dP][Iva]H[Cha][Aib]NK[Aib]TRQR[Cha]-NH2 (SMILES CC[C@](C)(NC(=O)[C@H]1CCCN1C(=O)[C@H](CO)NC(C)=O)C(=O)N[C@@H](Cc1c[nH]cn1)C(=O)N[C@@H](CC1CCCCC1)C(=O)NC(C)(C)C(=O)N[C@@H](CC(N)=O)C(=O)N[C@@H](CCCCN)C(=O)NC(C)(C)C(=O)N[C@H](C(=O)N[C@@H](CCCNC(=N)N)C(=O)N[C@@H](CCC(N)=O)C(=O)N[C@@H](CCCNC(=N)N)C(=O)N[C@@H](CC1CCCCC1)C(N)=O)[C@@H](C)O) [Ac-[D-Pro24, Iva25, Cha27,36, Aib28,31, Lys30]-PYY(23-36)] |
| 8.4 | 1.7 | Ac-S[dP][Aib][4Pal][Cha][Aib]NK[Aib]TRQR[Cha]-NH2 (SMILES CC(=O)N[C@@H](CO)C(=O)N1CCC[C@@H]1C(=O)NC(C)(C)C(=O)N[C@@H](Cc1ccncc1)C(=O)N[C@@H](CC1CCCCC1)C(=O)NC(C)(C)C(=O)N[C@@H](CC(N)=O)C(=O)N[C@@H](CCCCN)C(=O)NC(C)(C)C(=O)N[C@H](C(=O)N[C@@H](CCCNC(=N)N)C(=O)N[C@@H](CCC(N)=O)C(=O)N[C@@H](CCCNC(=N)N)C(=O)N[C@@H](CC1CCCCC1)C(N)=O)[C@@H](C)O) [Ac-[D-Pro24, Aib25,28,31, Pya(4)26, Cha27,36, Lys30]-PYY(23-36)] |
| 8.1 | 5.7 | Isonicotinoyl-E[dP][Nle][4Pal][Cha][Aib]NK[Aib]TRQR[Cha]-NH2 (SMILES CCCC[C@H](NC(=O)[C@H]1CCCN1C(=O)[C@H](CCC(=O)O)NC(=O)c1ccncc1)C(=O)N[C@@H](Cc1ccncc1)C(=O)N[C@@H](CC1CCCCC1)C(=O)NC(C)(C)C(=O)N[C@@H](CC(N)=O)C(=O)N[C@@H](CCCCN)C(=O)NC(C)(C)C(=O)N[C@H](C(=O)N[C@@H](CCCNC(=N)N)C(=O)N[C@@H](CCC(N)=O)C(=O)N[C@@H](CCCNC(=N)N)C(=O)N[C@@H](CC1CCCCC1)C(N)=O)[C@@H](C)O) [4-Pyridinecarbonyl-[Glu23, D-Pro24, Nle25, Pya(4)26, Cha27,36, Aib28,31, Lys30]-PYY(23-36)] |
| 3 | 2.4 | Ac-S[dP][Nle][4Pal][Cha][Aib]NK[Aib]TRQR[Cha]-NH2 (SMILES CCCC[C@H](NC(=O)[C@H]1CCCN1C(=O)[C@H](CO)NC(C)=O)C(=O)N[C@@H](Cc1ccncc1)C(=O)N[C@@H](CC1CCCCC1)C(=O)NC(C)(C)C(=O)N[C@@H](CC(N)=O)C(=O)N[C@@H](CCCCN)C(=O)NC(C)(C)C(=O)N[C@H](C(=O)N[C@@H](CCCNC(=N)N)C(=O)N[C@@H](CCC(N)=O)C(=O)N[C@@H](CCCNC(=N)N)C(=O)N[C@@H](CC1CCCCC1)C(N)=O)[C@@H](C)O) [Ac-[D-Pro24, Nle25, Pya(4)26, Cha27,36, Aib28,31, Lys30]-PYY(23-36)] |
| 7.5 | 6.9 | Ac-E[dP][Nle][4Pal][Cha][Aib]NK[Aib]TRQR[Cha]-NH2 (SMILES CCCC[C@H](NC(=O)[C@H]1CCCN1C(=O)[C@H](CCC(=O)O)NC(C)=O)C(=O)N[C@@H](Cc1ccncc1)C(=O)N[C@@H](CC1CCCCC1)C(=O)NC(C)(C)C(=O)N[C@@H](CC(N)=O)C(=O)N[C@@H](CCCCN)C(=O)NC(C)(C)C(=O)N[C@H](C(=O)N[C@@H](CCCNC(=N)N)C(=O)N[C@@H](CCC(N)=O)C(=O)N[C@@H](CCCNC(=N)N)C(=O)N[C@@H](CC1CCCCC1)C(N)=O)[C@@H](C)O) [Ac-[Glu23, D-Pro24, Nle25, Pya(4)26, Cha27,36, Aib28,31, Lys30]-PYY(23-36)] |
